Patent US20230110958A1 (Regeneron, published 2023)
Positions count from the first letter of the chain named. In names and notes the source's numbering stands. Each block holds one molecule with its values, some of them ahead of it.

Columns and labels:
Test in all cases: cell-based or functional assay
[1] = molecular target: human IL27 receptor (IL27Ra and gp130) on NCI-H929/GAS-Luc cells (human) (UniProt Q6UWB1)
[2] = molecular target: T1, murine IL27 receptor (IL27Ra and gp130) on mouse cells (MC9/STAT3-Luc reporter cells; splenic CD4+ T cells) (mouse) (UniProt O70394)
T1 sequence (looked up) 1: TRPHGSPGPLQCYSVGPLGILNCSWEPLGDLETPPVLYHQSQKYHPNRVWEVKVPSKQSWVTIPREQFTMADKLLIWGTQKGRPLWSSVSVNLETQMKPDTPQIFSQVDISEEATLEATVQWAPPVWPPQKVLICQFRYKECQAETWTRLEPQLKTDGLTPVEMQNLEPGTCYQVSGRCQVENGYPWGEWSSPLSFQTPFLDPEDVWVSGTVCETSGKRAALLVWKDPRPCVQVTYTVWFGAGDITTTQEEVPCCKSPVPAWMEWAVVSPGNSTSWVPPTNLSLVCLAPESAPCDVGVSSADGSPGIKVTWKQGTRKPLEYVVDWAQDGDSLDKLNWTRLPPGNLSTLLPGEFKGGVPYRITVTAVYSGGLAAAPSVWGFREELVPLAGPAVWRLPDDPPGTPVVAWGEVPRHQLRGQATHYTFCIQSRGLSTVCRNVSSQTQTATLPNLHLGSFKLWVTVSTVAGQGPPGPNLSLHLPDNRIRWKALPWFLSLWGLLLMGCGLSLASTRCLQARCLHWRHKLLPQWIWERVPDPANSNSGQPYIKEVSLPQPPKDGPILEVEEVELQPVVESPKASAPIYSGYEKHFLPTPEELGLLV
T1 sequence (looked up) 2: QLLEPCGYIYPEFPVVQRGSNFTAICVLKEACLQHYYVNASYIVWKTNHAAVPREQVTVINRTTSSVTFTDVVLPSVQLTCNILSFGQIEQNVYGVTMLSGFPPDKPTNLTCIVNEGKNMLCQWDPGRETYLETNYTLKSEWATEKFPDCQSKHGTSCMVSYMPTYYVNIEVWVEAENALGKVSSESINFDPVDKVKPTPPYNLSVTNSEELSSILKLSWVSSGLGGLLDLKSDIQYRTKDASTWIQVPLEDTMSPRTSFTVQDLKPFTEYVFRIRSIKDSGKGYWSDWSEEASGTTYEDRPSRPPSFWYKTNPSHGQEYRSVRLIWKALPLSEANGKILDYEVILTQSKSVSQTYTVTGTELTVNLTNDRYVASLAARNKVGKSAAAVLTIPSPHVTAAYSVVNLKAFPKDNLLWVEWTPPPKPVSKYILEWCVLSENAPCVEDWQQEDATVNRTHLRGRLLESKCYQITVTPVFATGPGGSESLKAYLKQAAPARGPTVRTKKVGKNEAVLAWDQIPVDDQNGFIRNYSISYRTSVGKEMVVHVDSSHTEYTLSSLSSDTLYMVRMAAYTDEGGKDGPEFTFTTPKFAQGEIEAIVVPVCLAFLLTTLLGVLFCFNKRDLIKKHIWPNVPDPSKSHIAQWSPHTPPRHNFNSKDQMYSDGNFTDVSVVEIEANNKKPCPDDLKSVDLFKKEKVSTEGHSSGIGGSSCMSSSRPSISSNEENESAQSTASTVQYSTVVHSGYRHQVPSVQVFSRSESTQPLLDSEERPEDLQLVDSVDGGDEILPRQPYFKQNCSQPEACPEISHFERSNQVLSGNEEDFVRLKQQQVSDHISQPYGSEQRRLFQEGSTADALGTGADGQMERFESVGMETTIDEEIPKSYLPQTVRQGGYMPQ

[3] = molecular target: T2, murine IL27 receptor (IL27Ra and gp130) on mouse cells (MC9/STAT3-Luc reporter cells; splenic CD4+ T cells) (mouse, UniProt O70394 25-623; Q00560 23-917)
T2 sequence (looked up) 1: T1 sequence (looked up) 1
T2 sequence (looked up) 2: T1 sequence (looked up) 2

[4] = molecular target: T2, murine IL27 receptor (IL27Ra and gp130) …; remark: listed apart in the source

Chain of human IL27 receptor (IL27Ra and gp130) on NCI-H929/GAS-Luc cells (human) (Q6UWB1 33-636, chain 1 of 2): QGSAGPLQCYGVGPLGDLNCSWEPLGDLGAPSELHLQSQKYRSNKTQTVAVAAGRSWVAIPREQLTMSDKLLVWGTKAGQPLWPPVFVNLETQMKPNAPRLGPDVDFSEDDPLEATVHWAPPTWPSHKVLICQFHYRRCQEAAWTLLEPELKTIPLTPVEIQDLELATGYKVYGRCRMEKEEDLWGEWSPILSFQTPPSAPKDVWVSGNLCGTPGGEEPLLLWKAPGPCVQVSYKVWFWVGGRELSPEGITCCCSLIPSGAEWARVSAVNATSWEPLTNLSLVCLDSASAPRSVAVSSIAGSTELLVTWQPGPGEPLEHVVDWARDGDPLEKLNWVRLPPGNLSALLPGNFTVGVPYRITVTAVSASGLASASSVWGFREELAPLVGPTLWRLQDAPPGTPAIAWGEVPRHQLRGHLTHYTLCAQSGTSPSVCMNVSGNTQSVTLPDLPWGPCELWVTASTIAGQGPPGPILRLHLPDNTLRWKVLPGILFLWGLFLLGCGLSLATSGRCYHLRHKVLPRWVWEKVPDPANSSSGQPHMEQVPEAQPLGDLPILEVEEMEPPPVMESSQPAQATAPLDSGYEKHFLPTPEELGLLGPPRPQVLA
Chain of human IL27 receptor (IL27Ra and gp130) on NCI-H929/GAS-Luc cells (human) (chain, as listed by the source, chain 2 of 2): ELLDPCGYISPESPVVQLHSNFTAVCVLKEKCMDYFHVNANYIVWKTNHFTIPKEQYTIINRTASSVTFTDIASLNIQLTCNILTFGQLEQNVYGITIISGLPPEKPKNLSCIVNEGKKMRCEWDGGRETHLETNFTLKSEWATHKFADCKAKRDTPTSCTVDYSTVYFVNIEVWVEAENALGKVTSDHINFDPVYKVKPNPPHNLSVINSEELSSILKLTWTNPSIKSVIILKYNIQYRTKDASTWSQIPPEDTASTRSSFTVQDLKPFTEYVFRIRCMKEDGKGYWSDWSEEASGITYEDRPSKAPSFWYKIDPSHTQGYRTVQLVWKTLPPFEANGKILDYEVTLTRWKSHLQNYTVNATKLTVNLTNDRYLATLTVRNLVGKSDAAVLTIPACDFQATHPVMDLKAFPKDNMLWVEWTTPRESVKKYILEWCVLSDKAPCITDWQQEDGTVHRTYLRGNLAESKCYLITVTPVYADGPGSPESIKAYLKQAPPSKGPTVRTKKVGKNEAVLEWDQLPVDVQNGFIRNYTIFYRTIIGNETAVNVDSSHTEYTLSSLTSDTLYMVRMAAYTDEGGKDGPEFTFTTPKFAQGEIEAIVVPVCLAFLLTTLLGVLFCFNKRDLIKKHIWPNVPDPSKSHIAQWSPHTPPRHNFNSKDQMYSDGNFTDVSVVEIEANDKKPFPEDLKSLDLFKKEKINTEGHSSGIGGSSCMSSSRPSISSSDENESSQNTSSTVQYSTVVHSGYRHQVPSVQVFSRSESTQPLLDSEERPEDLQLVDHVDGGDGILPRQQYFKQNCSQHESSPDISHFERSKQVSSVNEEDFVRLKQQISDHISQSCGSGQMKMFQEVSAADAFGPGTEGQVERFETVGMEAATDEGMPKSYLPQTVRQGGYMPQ

EC50 (M), GAS luciferase, NCI-H929/GAS-Luc cells [1]: 5.35e-09 M | FOLD INDUCTION, GAS luciferase, NCI-H929/GAS-Luc cells [1]: 15.2 fold
Molecule: human EBI3-p28-Fc (bivalent), configuration IL27M1 (Fc fusion)

EC50 (M), GAS luciferase, NCI-H929/GAS-Luc cells [1]: 1.27e-10 M | FOLD INDUCTION, GAS luciferase, NCI-H929/GAS-Luc cells [1]: 14.3 fold
Molecule: human hEBI3×hp28-Fc (monovalent) (Fc fusion)

EC50 (M), STAT3 luciferase, MC9/STAT3-Luc cells [2]: 3.22e-12 M | EC50 (M), STAT3 luciferase, MC9 cells [2]: 4.62e-12 M | EC50, luciferase activity, MC9/STAT3-Luc reporter cells [2]: 6.3 pM | EC50, phosphorylation of STAT1 in CD4+ T-cells [2]: 0.0244 µg/mL | FOLD INDUCTION, STAT3 luciferase, MC9/STAT3-Luc cells [2]: 5.25 fold | FOLD INDUCTION, STAT3 luciferase, MC9 cells [2]: 2.86 fold
B1: Recombinant murine IL27 (R&D Systems cat# 2700-ML-010/CF), Mouse EBI3-(GGGS)4-Mouse p28-6-His tag (ligand)
chain: YTETALVALSQPRVQCHASRYPVAVDCSWTPLQAPNSTRSTSFIATYRLGVATQQQSQPCLQRSPQASRCTIPDVHLFSTVPYMLNVTAVHPGGASSSLLAFVAERIIKPDPPEGVRLRTAGQRLQVLWHPPASWPFPDIFSLKYRLRYRRRGASHFRQVGPIEATTFTLRNSKPHAKYCIQVSAQDLTDYGKPSDWSLPGQVESAPHKPGGGSGGGSGGGSGGGSFPTDPLSLQELRREFTVSLYLARKLLSEVQGYVHSFAESRLPGVNLDLLPLGYHLPNVSLTFQAWHHLSDSERLCFLATTLRPFPAMLGGLGTQGTWTSSEREQLWAMRLDLRDLHRHLRFQVLAAGFKCSKEEEDKEEEEEEEEEEKKLPLGALGGPNQVSSQVSWPQLLYTYQLLHSLELVLSRAVRDLLLLSLPRRPGSAWDSHHHHHH

FOLD INDUCTION, STAT3 luciferase, MC9 cells [3]: 1.16 fold
B2: IL27M17, Bivalent Fc-p28 (Fc fusion)
chain: ESKYGPPCPPCPAPPVAGPSVFLFPPKPKDTLMISRTPEVTCVVVDVSQEDPEVQFNWYVDGVEVHNAKTKPREEQFNSTYRVVSVLTVLHQDWLNGKEYKCKVSNKGLPSSIEKTISKAKGQPREPQVYTLPPSQEEMTKNQVSLTCLVKGFYPSDIAVEWESNGQPENNYKTTPPVLDSDGSFFLYSRLTVDKSRWQEGNVFSCSVMHEALHNHYTQKSLSLSLGKGGGGSGGGGSGGGGSFPTDPLSLQELRREFTVSLYLARKLLSEVQGYVHSFAESRLPGVNLDLLPLGYHLPNVSLTFQAWHHLSDSERLCFLATTLRPFPAMLGGLGTQGTWTSSEREQLWAMRLDLRDLHRHLRFQVLAAGFKCSKEEEDKEEEEEEEEEEKKLPLGALGGPNQVSSQVSWPQLLYTYQLLHSLELVLSRAVRDLLLLSLPRRPGSAWDS

EC50 (M), STAT3 luciferase, MC9 cells [3]: 2.36e-10 M | FOLD INDUCTION, STAT3 luciferase, MC9 cells [3]: 2.86 fold
B3: IL27M18, 2:2 complex between IL27M17 (Fc-p28) and EBI3-mmh (Fc fusion)
chain 1: B2 chain
chain 2: YTETALVALSQPRVQCHASRYPVAVDCSWTPLQAPNSTRSTSFIATYRLGVATQQQSQPCLQRSPQASRCTIPDVHLFSTVPYMLNVTAVHPGGASSSLLAFVAERIIKPDPPEGVRLRTAGQRLQVLWHPPASWPFPDIFSLKYRLRYRRRGASHFRQVGPIEATTFTLRNSKPHAKYCIQVSAQDLTDYGKPSDWSLPGQVESAPHKPEQKLISEEDLGGEQKLISEEDLHHHHHH

EC50 (M), STAT3 luciferase, MC9 cells [3]: 1.18e-11 M | FOLD INDUCTION, STAT3 luciferase, MC9 cells [3]: 2.76 fold | EC50 (M), STAT3 luciferase, MC9/STAT3-Luc cells [4]: 1.16e-11 M | FOLD INDUCTION, STAT3 luciferase, MC9/STAT3-Luc cells [4]: 5.62 fold
B4: IL27M16, monovalent Fc x EBI3-p28 (Fc fusion)
chain 1: ESKYGPPCPPCPAPPVAGPSVFLFPPKPKDTLMISRTPEVTCVVVDVSQEDPEVQFNWYVDGVEVHNAKTKPREEQFNSTYRVVSVLTVLHQDWLNGKEYKCKVSNKGLPSSIEKTISKAKGQPREPQVYTLPPSQEEMTKNQVSLWCLVKGFYPSDIAVEWESNGQPENNYKTTPPVLDSDGSFFLYSRLTVDKSRWQEGNVFSCSVMHEALHNHYTQKSLSLSLGKGGGGSGGGGSGGGGSYTETALVALSQPRVQCHASRYPVAVDCSWTPLQAPNSTRSTSFIATYRLGVATQQQSQPCLQRSPQASRCTIPDVHLFSTVPYMLNVTAVHPGGASSSLLAFVAERIIKPDPPEGVRLRTAGQRLQVLWHPPASWPFPDIFSLKYRLRYRRRGASHFRQVGPIEATTFTLRNSKPHAKYCIQVSAQDLTDYGKPSDWSLPGQVESAPHKPGGGGSGGGGSGGGGSGGGGSFPTDPLSLQELRREFTVSLYLARKLLSEVQGYVHSFAESRLPGVNLDLLPLGYHLPNVSLTFQAWHHLSDSERLCFLATTLRPFPAMLGGLGTQGTWTSSEREQLWAMRLDLRDLHRHLRFQVLAAGFKCSKEEEDKEEEEEEEEEEKKLPLGALGGPNQVSSQVSWPQLLYTYQLLHSLELVLSRAVRDLLLLSLPRRPGSAWDS
chain 2: ESKYGPPCPPCPAPPVAGPSVFLFPPKPKDTLMISRTPEVTCVVVDVSQEDPEVQFNWYVDGVEVHNAKTKPREEQFNSTYRVVSVLTVLHQDWLNGKEYKCKVSNKGLPSSIEKTISKAKGQPREPQVYTLPPSQEEMTKNQVSLSCAVKGFYPSDIAVEWESNGQPENNYKTTPPVLDSDGSFFLVSRLTVDKSRWQEGNVFSCSVMHEALHNRFTQKSLSLSPGK

EC50 (M), STAT3 luciferase, MC9/STAT3-Luc cells [4]: 1.18e-11 M | FOLD INDUCTION, STAT3 luciferase, MC9/STAT3-Luc cells [4]: 5.59 fold
B5: IL27M24, monovalent Fc x EB13-p28 (K52A) (Fc fusion)
chain 1: B4 chain 1 with K497A
chain 2: B4 chain 2

EC50 (M), STAT3 luciferase, MC9/STAT3-Luc cells [4]: 1.98e-11 M | FOLD INDUCTION, STAT3 luciferase, MC9/STAT3-Luc cells [4]: 5.34 fold
B6: IL27M23, monovalent Fc x EB13-p28 (Y202A, Q203A) (Fc fusion)
chain 1: B4 chain 1 with Y647A, Q648A
chain 2: B4 chain 2

EC50 (M), STAT3 luciferase, MC9/STAT3-Luc cells [4]: 3.85e-10 M | FOLD INDUCTION, STAT3 luciferase, MC9/STAT3-Luc cells [4]: 2.8 fold
B7: IL27M26, monovalent Fc x EB13-p28 (L198A, L199A) (Fc fusion)
chain 1: B4 chain 1 with L643A, L644A
chain 2: B4 chain 2

FOLD INDUCTION, STAT3 luciferase, MC9/STAT3-Luc cells [4]: 1.2 fold
B8: IL27M27, monovalent Fc x EB13-p28 (W195A) (Fc fusion)
chain 1: B4 chain 1 with W640A
chain 2: B4 chain 2

FOLD INDUCTION, STAT3 luciferase, MC9/STAT3-Luc cells [4]: 4.35 fold
B9: IL27M25, monovalent Fc x EB13-p28 (L138A, R145A, H146A) (Fc fusion)
chain 1: B4 chain 1 with L583A, R590A, H591A
chain 2: B4 chain 2

EC50 (M), STAT3 luciferase, MC9 cells [3]: 2.81e-10 M | FOLD INDUCTION, STAT3 luciferase, MC9 cells [3]: 2.71 fold
B10: IL27M14, 2:2 complex between IL27M13 (p28-Fc) and EBI3-mmh (Fc fusion)
chain 1: FPTDPLSLQELRREFTVSLYLARKLLSEVQGYVHSFAESRLPGVNLDLLPLGYHLPNVSLTFQAWHHLSDSERLCFLATTLRPFPAMLGGLGTQGTWTSSEREQLWAMRLDLRDLHRHLRFQVLAAGFKCSKEEEDKEEEEEEEEEEKKLPLGALGGPNQVSSQVSWPQLLYTYQLLHSLELVLSRAVRDLLLLSLPRRPGSAWDSGGGGSGGGGSGGGGSESKYGPPCPPCPAPPVAGPSVFLFPPKPKDTLMISRTPEVTCVVVDVSQEDPEVQFNWYVDGVEVHNAKTKPREEQFNSTYRVVSVLTVLHQDWLNGKEYKCKVSNKGLPSSIEKTISKAKGQPREPQVYTLPPSQEEMTKNQVSLTCLVKGFYPSDIAVEWESNGQPENNYKTTPPVLDSDGSFFLYSRLTVDKSRWQEGNVFSCSVMHEALHNHYTQKSLSLSLGK
chain 2: B3 chain 2
